Assay results taken from publication PMC6346018 (Scientific Reports, 2019).

B1: arrestin-1-mCherry-Strep-tag double mutant T304A + F375A, HEK293-expressed and purified (natural protein, bovine, UniProt P08168 1-404, looked up)
chain: MKANKPAPNHVIFKKISRDKSVTIYLGKRDYIDHVERVEPVDGVVLVDPELVKGKRVYVSLTCAFRYGQEDIDVMGLSFRRDLYFSQVQVFPPVGASGATTRLQESLIKKLGANTYPFLLTFPDYLPCSVMLQPAPQDVGKSCGVDFEIKAFATHSTDVEEDKIPKKSSVRLLIRKVQHAPRDMGPQPRAEASWQFFMSDKPLRLAVSLSKEIYYHGEPIPVTVAVTNSTEKTVKKIKVLVEQVTNVVLYSSDYYIKTVAAEEAQEKVPPNSSLTKTLTLVPLLANNRERRGIALDGKIKHEDANLASSTIIKEGIDKTVMGILVSYQIKVKLTVSGLLGELTSSEVATEVPFRLMHPQPEDPDTAKESFQDENAVFEEFARQNLKDAGEYKEEKTDQEAAMDE
notes: arrestin-1 (visual arrestin), bovine, UniProt P08168; also called T304A + F375A double mutant; source: HEK293, transiently transfected (pcDNA3.1), one-step purified (Strep-Tactin); not shown: mCherry, C-terminal, kept
B2: arrestin-1-mCherry double mutant T304A + F375A, bacterial lysate (natural protein, bovine, UniProt P08168 1-404, looked up)
chain: MKANKPAPNHVIFKKISRDKSVTIYLGKRDYIDHVERVEPVDGVVLVDPELVKGKRVYVSLTCAFRYGQEDIDVMGLSFRRDLYFSQVQVFPPVGASGATTRLQESLIKKLGANTYPFLLTFPDYLPCSVMLQPAPQDVGKSCGVDFEIKAFATHSTDVEEDKIPKKSSVRLLIRKVQHAPRDMGPQPRAEASWQFFMSDKPLRLAVSLSKEIYYHGEPIPVTVAVTNSTEKTVKKIKVLVEQVTNVVLYSSDYYIKTVAAEEAQEKVPPNSSLTKTLTLVPLLANNRERRGIALDGKIKHEDANLASSTIIKEGIDKTVMGILVSYQIKVKLTVSGLLGELTSSEVATEVPFRLMHPQPEDPDTAKESFQDENAVFEEFARQNLKDAGEYKEEKTDQEAAMDE
notes: arrestin-1 (visual arrestin), bovine, UniProt P08168; not shown: mCherry, C-terminal, kept

How the values were obtained:
[1] = biological target: T1, light-activated and phosphorylated rhodopsin in rod outer segment membranes (P-ROS*) (UniProt P02699 1-348, phosphorylated by endogenous GRK1: mixture of species with up to seven phosphate groups per molecule, sites not stated); experiment: pull-down; 1.5 µg purified arrestin-1-mCherry and 15 µg (rhod-)opsin in native ROS membranes, 50 µl, 100 mM Hepes pH 7.0, 100 mM NaCl, 1 mM DTT, 0.1 mM EDTA; P-ROS* and ROS* illuminated 2.5 min (495 nm long-pass), others kept dark; centrifuged at 4 °C, pellet washed, mCherry fluorescence; conditions: one partner purified
T1 construct: rhodopsin, endogenous in native rod outer segment (ROS) disc membranes (isolated membranes, not whole cells); also called ROS-P*; source: rod outer segment disc membranes isolated from native source; phosphorylated by endogenously available GRK1; illuminated
T1 sequence (P02699 whole entry): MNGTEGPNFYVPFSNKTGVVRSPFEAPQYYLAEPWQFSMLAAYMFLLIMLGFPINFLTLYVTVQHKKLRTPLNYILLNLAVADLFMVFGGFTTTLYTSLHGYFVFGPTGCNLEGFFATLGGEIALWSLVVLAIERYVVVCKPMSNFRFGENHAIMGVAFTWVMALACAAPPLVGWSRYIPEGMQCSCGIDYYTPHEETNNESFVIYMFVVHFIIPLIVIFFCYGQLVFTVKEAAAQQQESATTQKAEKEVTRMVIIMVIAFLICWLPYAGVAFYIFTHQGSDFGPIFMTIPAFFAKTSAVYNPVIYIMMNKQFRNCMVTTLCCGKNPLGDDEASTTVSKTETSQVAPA

[2] = biological target: T1, light-activated and phosphorylated …; experiment: pull-down; cleared bacterial lysate with arrestin-mCherry mixed with ROS-P* membranes; 10 mM Hepes pH 7.0, 1 mM DTT, 1 mM MgCl2, 0.1 mM EDTA, NaCl from 100 mM to 3.949 M; 37 °C, 5 min incubation, light activated 6 min; membranes pelleted, washed, mCherry fluorescence of the pellet; IC50 of NaCl for complex formation; conditions: partners not purified
[3] = biological target: T1, light-activated and phosphorylated …; experiment: as above; conditions: partners not purified; remark: listed apart in the source

Binder	activity level relative to WT [1] [%]	IC50 of NaCl relative to WT [2] [%]	IC50 of NaCl for complex formation [3] [M]
B1	106		
B2		502	1.51
